{"source": "patent US20190367636A1", "about": "(Bayer, published 2019)", "binders": {"B1": {"name": "BAY1213790 (antibody, human IgG1, kappa, V domains shown)", "VH": "EVQLLESGGGLVQPGGSLRLSCAASGFTFSQYGMDWVRQAPGKGLEWVSGIGPSGGSTVYADSVKGRFTISRDNSKNTLYLQMNSLRAEDTAVYYCTRGGPYYYYGMDVWGQGTTVTVSS", "VL": "DIQMTQSPSSLSASVGDRVTITCQASQDISNYLNWYQQKPGKAPKLLIYDASNLETGVPSRFSGSGSGTDFTFTISSLQPEDIATYYCQQADSFPVTFGGGTKVEIKR", "notes": "Human monoclonal IgG; also called anti-FXIa antibody; anti-hFXIa monoclonal antibody"}}, "key": {"[1]": {"target": "T1, activated human coagulation factor XI (hFXIa) (human, UniProt P03951 19-625, limits assumed)", "test": "cell-based or functional assay"}, "[2]": {"target": "T1, activated human coagulation factor XI …", "test": "SPR (Biacore), binding of lyophilized formulation test sample at t0 to human FXIa, relative to BAY 1213790 reference standard", "protocol": "The binding of the BAY 1213790 test sample and of the BAY 1213790 reference standard to human factor XIa (FXIa) antigen is determined by surface plasmon resonance spectroscopy (SPR, Biacore). The binding affinity of the test sample is compared to the BAY 1213790 reference standard."}, "[3]": {"target": "T1, activated human coagulation factor XI …", "test": "ELISA, lyophilized formulation after 36 months at 2-8 C, relative to BAY 1213790 reference standard"}}}
{"binder": "B1", "values": [{"measurement": "Activity relative to reference (Bioassay), t0", "setting": "[1]", "value": 104, "unit": "%"}, {"measurement": "Activity relative to reference (Bioassay), t = 36 months at 2-8 C", "setting": "[1]", "value": 101, "unit": "%"}, {"measurement": "Activity relative to reference (Biacore)", "setting": "[2]", "value": 108, "unit": "%"}, {"measurement": "Activity relative to reference (ELISA)", "setting": "[3]", "value": 104, "unit": "%"}]}
